Here are results for six molecules from publication PMC3531522, “Nasal Colonisation by Staphylococcus aureus Depends upon Clumping Factor B Binding to the Squamous Epithelial Cell Envelope Protein Loricrin” (PLoS Pathogens, 2012).

The labels stand for the following.
B2: Recombinant ClfB N2N3 (rClfB_(201–542)) (domain or fragment)
chain: AEPVVNAADAKGTNVNDKVTASNFKLEKTTFDPNQSGNTFMAANFTVTDKVKSGDYFTAKLPDSLTGNGDVDYSNSNNTMPIADIKSTNGDVVAKATYDILTKTYTFVFTDYVNNKENINGQFSLPLFTDRAKAPKSGTYDANINIADEMFNNKITYNYSSPIAGIDKPNGANISSQIIGVDTASGQNTYKQTVFVNPKQRVLGNTWVYIKGYQDKIEESSGKVSATDTKLRIFEVNDTSKLSDSYYADPNDSNLKEVTDQFKNRIYYEHPNVASIKFGDITKTYVVLVEGHYDNTGKNLKTQVIQENVDPVTNRDYSIFGWNNENVVRYGGGSADGDSAVN
notes: Clumping factor B (ClfB) of S. aureus, amino acids 201-542 (subdomains N2 and N3 of the A domain), amplified from plasmid pCU1:clfB; also called ClfB N2N3_(201–542); ClfB N23_(201–542); not shown: His6, N-terminal, kept

Experiment in all cases: SPR; BIAcore X100; GST-tagged ligand captured on a CM5 chip coated with goat anti-GST IgG, GST on the reference cell; increasing concentrations of rClfB_(201–542) in PBS passed in succession without regeneration (single cycle); KD from response at equilibrium against concentration
In assay [1] the target is GST-tagged human loricrin loop region 1A (human).
In assay [2] the target is GST-tagged human loricrin loop region 1B (human).
Assay [3] has as its target GST-tagged human loricrin loop region 2 (human).
Assay [4] has as its target GST-tagged human loricrin loop region 2v (human).
Assay [5] addresses GST-tagged human loricrin loop region 3 (human).
Assay [6] deals with B2. The conditions noted are these: both partners purified.
In assay [7] the target is B2. The conditions noted are these: both partners purified. The source holds these as a separate data set.
Assay [8] addresses T1, GST-murine loricrin_(1–480) (murine, UniProt P18165 1-486).
T1 construct: Loricrin, murine, full length, printed as residues 1-480; The printed length (480) may differ from that of the UniProt entry; also called MLor; GST-MLor; source: DNA codon optimised for E. coli, in pGEX-4T; purified on GSTrap FF; not shown: GST, N-terminal, kept
T1 sequence (looked up): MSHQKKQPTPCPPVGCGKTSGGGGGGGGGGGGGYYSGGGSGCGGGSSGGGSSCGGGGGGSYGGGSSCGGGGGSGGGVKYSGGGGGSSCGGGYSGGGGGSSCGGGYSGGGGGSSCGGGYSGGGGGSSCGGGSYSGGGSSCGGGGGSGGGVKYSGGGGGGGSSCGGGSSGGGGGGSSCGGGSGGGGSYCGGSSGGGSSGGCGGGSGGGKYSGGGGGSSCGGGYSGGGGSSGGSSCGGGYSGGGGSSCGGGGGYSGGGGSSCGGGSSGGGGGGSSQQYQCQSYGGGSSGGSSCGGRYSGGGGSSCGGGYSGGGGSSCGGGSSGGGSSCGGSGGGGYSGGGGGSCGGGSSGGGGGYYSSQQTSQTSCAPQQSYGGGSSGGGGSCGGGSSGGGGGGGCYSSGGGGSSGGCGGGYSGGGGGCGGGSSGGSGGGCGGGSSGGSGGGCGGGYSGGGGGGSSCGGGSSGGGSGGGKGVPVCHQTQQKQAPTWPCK
The conditions noted are these: both partners purified.

For “Recombinant ClfB N2N3 (rClfB_(201–542)) (from UniProt O86476 201-542) (domain or fragment)”, the Kd in assay [1] is 16.7 µM; in assay [2], 34.5 µM; in assay [3], 3.31 µM; in assay [4], 2.21 µM; in assay [5], 5.47 µM.

B1: GST-Fgα_(316–367) (domain or fragment, UniProt P02671 335-386, looked up)
chain: NSGSSGTGSTGNQNPGSPRPGSTGTWNPGSSERGSAGHWTSESSVSGSTGQW
notes: Fibrinogen α-chain, residues 316-367, repeat domain 5 of the αC region; also called repeat domain 5 of the αC region of Fg
As to B1, the figures for the Kd in assay [6] and in assay [7] were 5.52 ± 1.5 µM and 5.25 µM, respectively.
B2: the affinity in assay [8], expressed as Kd, was 15.7 µM.

B3: GST-human loricrin_(1–315) (natural protein, UniProt P23490 1-312, looked up)
chain: MSYQKKQPTPQPPVDCVKTSGGGGGGGGSGGGGCGFFGGGGSGGGSSGSGCGYSGGGGYSGGGCGGGSSGGGGGGGIGGCGGGSGGSVKYSGGGGSSGGGSGCFSSGGGGSGCFSSGGGGSSGGGSGCFSSGGGGSSGGGSGCFSSGGGGFSGQAVQCQSYGGVSSGGSSGGGSGCFSSGGGGGSVCGYSGGGSGCGGGSSGGSGSGYVSSQQVTQTSCAPQPSYGGGSSGGGGSGGSGCFSSGGGGGSSGCGGGSSGIGSGCIISGGGSVCGGGSSGGGGGGSSVGGSGSGKGVPICHQTQQKQAPTWPSK
notes: Loricrin, human, full length, printed as residues 1-315 (S1 to K315); also called HLor; Hlor; source: DNA codon optimised for E. coli, in pGEX-4T; purified on GSTrap FF; not shown: GST, N-terminal, kept
Regarding B3, in assay [7], the Kd is 4.33 µM.

B4: GST-murine K10_(454–570) (domain or fragment, UniProt P02535 454-570, looked up)
chain: EGSSSGGGGGRRGGSGGGSYGGSSGGGSYGGSSGGGGSYGGSSGGGGSYGGGSSGGGSHGGSSGGGYGGGSSSGGAGGHGGSSGGGYGGGSSSGGQGGSGGFKSSGGGDQSSKGPRY
notes: Cytokeratin 10 (K10), murine, residues 454-570 (C-terminal tail region); also called MK10; GST-MK10; source: DNA codon optimised for E. coli, in pGEX-4T; purified on GSTrap FF; not shown: GST, N-terminal, kept
Turning to B4, the Kd in assay [7] came out at 14.4 µM.

B5: GST-human K10_(544–563) (peptide)
chain: GGSSGGGSSSGGGYGGGSSS
notes: Cytokeratin 10 (K10), human, residues 544-563 (C-terminal tail region); also called HK10; GST-HK10; source: DNA codon optimised for E. coli, in pGEX-4T; purified on GSTrap FF; not shown: GST, N-terminal, kept
In the case of B5, the Kd in assay [7] came to 7.89 µM.
